Experimental findings from patent US20120321697A1 (GWANGJU INSTITUTE OF SCIENCE AND TECHNOLOGY, published 2012) are described below.

Test [1] addresses T1, Fibronectin ED-B protein (recombinant, N-terminal His-tag, biotinylated where captured on streptavidin) (human, UniProt P02751 1266-1356, biotin by sulfo-NHS-SS-biotin (for biopanning, input phage ELISA and SPR on SA chip)).
T1 construct: domain: ED-B; Expressed in E. coli BL21 from pET28b; also called fibronectin extra domain B; biotinylated-EDB; not shown: N-terminal His-tag from pET28b
The test is described as follows: phage ELISA on 10 coated proteins, absorbance at 450 nm. The method, then: Each protein (5 μg/ml) was seeded into wells (50 μl per well) in a 96-well ELISA plate and next day, all wells were washed with 0.1% PBST (Tween-20) three times, and blocked at room temperature for 2 hrs using 2% skim milk. Then, the solution was completely removed and the plate was washed with 0.1% PBST three times. Recombinant phages containing the peptide of the present invention were thoroughly mixed with 2% BSA. Each mixture (100 μl) was divided into wells coated with 10 proteins and kept to stand at 27° C. for 2 hrs. After washing with 0.1% PBST 5 times, HRP-conjugated anti-M13 antibodies (1:1,000 dilution; GE Healthcare) were added to each well and incubated at 27° C. for 1 hr. After washing with 0.1% PBST 5 times, 100 μl TMB was divided into each well to induce colorimetric reaction, followed by stopping the reaction adding 100 μl of 1 M HCl. The absorbance was measured at 450 nm.
Background: An ELISA detects its analyte on a solid surface through an enzyme-linked reagent.

Test [2] has as its target T1, Fibronectin ED-B protein (recombinant, …). Kind of test: SPR (Biacore X), biotin-EDB on streptavidin chip up to 2000 RU. The protocol:
(§1) We tested using a SPR device whether the purified GST-BPB protein can bind to fibronectin EDB. […] PBS (pH 7.4) was used as a running buffer and the flow rate was 30 μ1/min. The kinetics was measured in various concentrations and then the affinity was calculated using BIAevaluation.
(In general: Surface plasmon resonance follows binding to a sensor surface in real time, without labels.)

Test [3] shares this target. Kind of test: SPR (Biacore X), biotin-EDB on streptavidin chip. The method, then:
as §1
The affinity of the GST-BPB to fibronectin ED-B was measured using the SPR biacore system.

The target of test [4] is T2, VCAM1-Trx (human, UniProt P19320 25-698).
T2 construct: the form used in SPR is not described; also called Trx-VCAM1; vascular cell adhesion molecule-1; not shown: Trx (thioredoxin) fusion partner and tags of pET32a
T2 sequence (looked up): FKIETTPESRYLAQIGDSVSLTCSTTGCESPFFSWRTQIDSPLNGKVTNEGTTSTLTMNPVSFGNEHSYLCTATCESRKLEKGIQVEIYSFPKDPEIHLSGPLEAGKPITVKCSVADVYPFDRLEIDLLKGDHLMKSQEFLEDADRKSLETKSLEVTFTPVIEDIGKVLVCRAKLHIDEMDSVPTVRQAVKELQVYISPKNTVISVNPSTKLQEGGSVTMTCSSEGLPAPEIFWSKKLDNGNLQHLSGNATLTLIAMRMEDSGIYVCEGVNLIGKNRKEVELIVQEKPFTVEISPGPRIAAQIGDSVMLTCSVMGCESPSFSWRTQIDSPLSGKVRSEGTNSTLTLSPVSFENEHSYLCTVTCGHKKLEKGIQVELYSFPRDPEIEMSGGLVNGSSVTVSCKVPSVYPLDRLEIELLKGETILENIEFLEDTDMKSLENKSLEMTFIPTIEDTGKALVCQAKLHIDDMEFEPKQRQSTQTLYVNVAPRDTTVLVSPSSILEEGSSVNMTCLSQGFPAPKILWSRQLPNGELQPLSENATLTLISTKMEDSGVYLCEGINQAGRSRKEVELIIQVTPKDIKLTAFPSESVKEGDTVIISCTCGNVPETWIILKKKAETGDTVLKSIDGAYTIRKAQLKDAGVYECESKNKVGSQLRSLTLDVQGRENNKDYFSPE
The test is described as follows: SPR (Biacore).

Test [5] has as its target T3, VEGF121 (human, UniProt P15692-9 27-147).
T3 construct: Isoform VEGF121; also called vascular endothelial growth factor
T3 sequence (looked up): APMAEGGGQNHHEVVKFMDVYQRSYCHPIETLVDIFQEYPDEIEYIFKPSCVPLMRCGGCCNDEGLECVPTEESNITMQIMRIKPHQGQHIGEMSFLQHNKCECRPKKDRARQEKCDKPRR
Kind of test: phage ELISA (anti-M13-HRP, absorbance at 450 nm), proteins coated at 5 µg/ml.

The target in test [6] is BSA (UniProt P02769 25-607). The test is described as above.
Test [7] has as its target T1, Fibronectin ED-B protein (recombinant, …). The test is described as above.
For test [8], the target named is T4, TNFa.
T4 construct: Control protein; also called TNF-α
Described as above.

For test [9], the target named is T5, Trx.
T5 construct: Control for the fusion partner; also called thioredoxin; not shown: The His-tag/S-tag linker tail of pET32a, if Trx was expressed from the empty vector
The test is described as above.

Test [10] has as its target T2, VCAM1-Trx. Kind of test: SPR (Biacore), synthetic peptide; immobilisation of VCAM1 not described.

No end group written: not given here. vector‑coded linker = not defined here

T1 sequence (P02751 1266-1356): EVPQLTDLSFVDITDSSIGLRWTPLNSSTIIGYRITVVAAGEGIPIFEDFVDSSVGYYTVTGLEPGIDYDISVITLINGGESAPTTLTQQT
Sequence of BSA (P02769 25-607 limits assumed): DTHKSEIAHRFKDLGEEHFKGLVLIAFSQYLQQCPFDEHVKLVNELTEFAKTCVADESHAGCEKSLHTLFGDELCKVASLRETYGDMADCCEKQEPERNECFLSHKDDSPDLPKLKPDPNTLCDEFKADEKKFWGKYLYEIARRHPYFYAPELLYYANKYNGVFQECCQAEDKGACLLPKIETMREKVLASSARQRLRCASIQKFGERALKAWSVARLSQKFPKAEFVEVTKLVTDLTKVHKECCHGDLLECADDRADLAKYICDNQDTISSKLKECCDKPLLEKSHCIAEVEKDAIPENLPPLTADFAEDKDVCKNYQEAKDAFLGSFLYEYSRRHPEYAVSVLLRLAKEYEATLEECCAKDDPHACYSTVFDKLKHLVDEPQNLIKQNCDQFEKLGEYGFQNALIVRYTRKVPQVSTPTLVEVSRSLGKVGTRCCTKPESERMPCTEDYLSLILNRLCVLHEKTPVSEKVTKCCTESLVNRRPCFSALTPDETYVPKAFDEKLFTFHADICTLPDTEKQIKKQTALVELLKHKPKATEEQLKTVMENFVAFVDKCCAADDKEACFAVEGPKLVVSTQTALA

B1: Peptide 2 specific to fibronectin ED-B (Table 3a) (peptide)
peptide: HCSSAVGSWTWENGKWTWKGIIRLEQ
notes: Synthetic peptide in SPR; also called tryptophan zipper
B1: the “fold absorbance against other proteins” value in test [1] was determined as 30 fold.

B2: GST-BPB fusion protein for fibronectin EDB (other)
chain: {GST-vector‑coded linker}-HCSSAVGSWTWENGKWTWKGIIRLEQ
modifications: not fully specified; reading uncertain
notes: BPB insert cloned BamHI/XhoI into pGEX4T-1, expressed in E. coli BL21; The reverse primer GST-B1 may add a few residues after the BPB; not shown: glutathione S-transferase (GST) as coded by the pGEX4T-1 vector (GE Healthcare); vector-coded linker between GST and BPB
Consider B2, for which, in test [2], the Kd came out at 284 nM. In [3], the koff stood at 0.00347 s⁻¹ and the kon came to 12200 M⁻¹ s⁻¹.

B3: Peptide 1 specific to VCAM1 (Table 3c) (peptide)
peptide: QARDCTGSWTWENGKWTWKGPSICPI
notes: Synthetic peptide in SPR; also called BPB
In the case of B3, the koff in [4] stood at 0.1 s⁻¹. In test [4], this molecule registered a kon of 330000 M⁻¹ s⁻¹. The binding result in [5], in test [6], in test [7], in test [8] and in test [9] was “no binding” in each case. In [10], binding was characterised by a dissociation constant (Kd) of 318 nM.

Broadly, the Kd is a measure of binding affinity in units of concentration. One may read the koff as a measure of how fast the partners let go of each other. Usually kon stands for the second-order rate constant of association.
